Patent publication CN114106182A (ZHONGSHAN KANGFARE BIOLOGICAL MEDICINE CO LTD, dated 2022)
One block for each binder: values may come before it.

How the values were obtained:
[1] = biological target: T1, TIGIT antigen on the surface of 293T-TIGIT cells (human, UniProt Q495A1 22-244); test: flow cytometry on 293T-TIGIT cells, FITC goat anti-human IgG
T1 construct: whole, on cells; also called Jurkat-TIGIT (TIGITFL)
T1 sequence (looked up): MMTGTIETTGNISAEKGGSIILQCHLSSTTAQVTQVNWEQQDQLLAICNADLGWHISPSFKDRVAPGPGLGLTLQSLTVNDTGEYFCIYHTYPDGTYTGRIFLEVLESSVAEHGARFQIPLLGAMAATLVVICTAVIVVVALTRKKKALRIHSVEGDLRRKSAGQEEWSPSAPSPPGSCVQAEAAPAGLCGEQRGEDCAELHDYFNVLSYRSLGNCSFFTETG

[2] = biological target: T1, TIGIT antigen on the surface of …; test: FACS competition on 293T-TIGIT cells; competitor CD112-mG1Fc (30 nM)
[3] = biological target: T1, TIGIT antigen on the surface of …; test: FACS competition on 293T-TIGIT cells; competitor CD155-mG1Fc (10 nM)
[4] = biological target: T2, human TIGIT-mFc (human; mouse, UniProt Q495A1 22-141, limits assumed); test: BLI (Fortebio), antibody on AHC sensor, TIGIT-mFc 0.62-50 nM, 1:1 fit, 37 degrees
T2 construct: Made in house (Akeso, lot 20171110); also called 人TIGIT-mFc; not shown: Fc fragment of mouse IgG (mFc)
T2 sequence (looked up): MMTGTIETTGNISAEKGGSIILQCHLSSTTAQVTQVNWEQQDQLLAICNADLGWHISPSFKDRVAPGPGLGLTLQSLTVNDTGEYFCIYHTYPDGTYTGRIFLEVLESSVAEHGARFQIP

[5] = biological target: T2, human TIGIT-mFc; test: indirect ELISA, TIGIT-mFc captured by goat anti-mouse IgG Fc (Table 2 experiment)
[6] = biological target: T2, human TIGIT-mFc; test: competition ELISA on coated TIGIT-mFc; competitor CD155-hFc-Biotin (Table 4 experiment)
[7] = biological target: T2, human TIGIT-mFc; test: indirect ELISA screening of hybridomas on human TIGIT-mFc
[8] = biological target: T2, human TIGIT-mFc; test: indirect ELISA, TIGIT-mFc captured by goat anti-mouse IgG Fc (Table 1 experiment)
[9] = biological target: T2, human TIGIT-mFc; test: competition ELISA on coated TIGIT-mFc; competitor CD155-hFc-Biotin (Table 3 experiment)

EC50 [1]: 1.15 nM | EC50 [2]: 1.29 nM | EC50 [3]: 1.22 nM | Kd [4]: 0.847 nM | EC50 [5]: 0.017 nM | EC50 [6]: 0.425 nM
B1: RG6058(G1DM) (antibody, human IgG1, kappa, L234A L235A, V domains shown)
VH: EVQLQQSGPGLVKPSQTLSLTCAISGDSVSSNSAAWNWIRQSPSRGLEWLGKTYYRFKWYSDYAVSVKGRITINPDTSKNQFSLQLNSVTPEDTAVFYCTRESTTYDLLAGPFDYWGQGTLVTVSS
VL: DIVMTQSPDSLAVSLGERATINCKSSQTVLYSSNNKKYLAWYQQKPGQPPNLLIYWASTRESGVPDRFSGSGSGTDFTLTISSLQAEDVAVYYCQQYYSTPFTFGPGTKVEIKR
notes: Positive control anti-TIGIT antibody (Tiragolumab variable regions, G1DM constant region)

binding result [7]: binds
B2: 26B12 (antibody, V domains shown)
VH: EVQLQESGPGLVKPSQSLSLTCTVTGHSFTSDYAWNWIRQFPGNRLEWMGYISYSDSTNYNPSLKSRISITRDTSKNQFFLQMNSVTTEDTATYYCARLDYGNYGGAMDYWGQGTSVTVSS
VL: DIVLTQSHEFMSTSLRDRVSITCKSSQHVSTAVAWYQQKPGQSPKLLIYSASYRYTGVPDRFTGSGSGTDFTFTISSVKAEDLAVYYCQQHYITPWTFGGGTKLEIK
notes: Mouse monoclonal antibody from hybridoma; also called monoclonal antibody secreted by hybridoma LT019 (CCTCC NO: C2020208)

EC50 [8]: 0.017 nM | EC50 [9]: 0.513 nM
B3: BMS 22G2 (antibody, human IgG1, kappa, V domains shown)
VH: QVQLQESGPGLVKPSETLSLTCTVSGGSVSSGIYYWSWIRQPPGKGLEWIGYIYYSGSTNYNPSLKSRVTISVDTSKNQFSLKLSSVTAADTAVYYCARDYYVSGNYYNVDYYFFGVDVWGQGTTVTVSS
VL: EIVLTQSPATLSLSPGERATLSCRASQSVSSYLAWYQQKPGQAPRLLIYDASNRATGIPARFSGSGSGTDFTLTISSLEPEDFAVYYCQQRSNWPPLFTFGPGTKVDIKR
notes: Positive control anti-TIGIT antibody

Kd [4]: 0.628 nM
B4: BMS 22G2(G1DM) (antibody, V domains shown)
VH: B3 VH
VL: EIVLTQSPATLSLSPGERATLSCRASQSVSSYLAWYQQKPGQAPRLLIYDASNRATGIPARFSGSGSGTDFTLTISSLEPEDFAVYYCQQRSNWPPLFTFGPGTKVDIK
